Values of other authors, collected in PMC12692374.
pKd: −log10 of the molar value.

Biological target: HIV-1 capsid (Human immunodeficiency virus 1) (UniProt O93182)
Sequence (O93182 133-363): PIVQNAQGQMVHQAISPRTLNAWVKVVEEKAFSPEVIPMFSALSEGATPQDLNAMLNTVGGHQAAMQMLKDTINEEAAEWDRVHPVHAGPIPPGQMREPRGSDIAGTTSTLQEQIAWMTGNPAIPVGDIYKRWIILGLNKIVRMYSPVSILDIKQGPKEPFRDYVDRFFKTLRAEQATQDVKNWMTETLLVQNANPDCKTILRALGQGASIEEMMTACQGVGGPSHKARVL

Chain of NONO (Q15233 whole entry): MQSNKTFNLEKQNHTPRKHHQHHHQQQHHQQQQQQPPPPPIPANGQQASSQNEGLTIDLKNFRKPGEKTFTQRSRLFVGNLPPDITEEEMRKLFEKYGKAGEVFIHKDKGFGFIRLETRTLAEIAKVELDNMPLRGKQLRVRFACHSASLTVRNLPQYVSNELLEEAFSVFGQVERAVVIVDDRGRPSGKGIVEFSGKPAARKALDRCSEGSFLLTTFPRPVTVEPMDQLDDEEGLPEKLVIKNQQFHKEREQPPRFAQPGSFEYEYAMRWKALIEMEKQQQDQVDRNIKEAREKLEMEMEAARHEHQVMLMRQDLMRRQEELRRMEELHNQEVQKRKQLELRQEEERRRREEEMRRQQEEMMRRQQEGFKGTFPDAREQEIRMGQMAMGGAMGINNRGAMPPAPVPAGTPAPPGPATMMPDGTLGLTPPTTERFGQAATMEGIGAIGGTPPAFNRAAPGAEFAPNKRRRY

In the case of NONO (from UniProt Q15233), the pKd is listed as 5.04.
